These results are taken from paper PMC8612531 (Science Advances, 2021).

Data set [1] deals with the molecule itself. As to the kind of experiment: crystal structure.
Data set [2] deals with the molecule itself. Briefly: SEC.

Residue numbers refer to the chain shown, from its start. Names may count otherwise.

B1: XccBphP G454E full-length variant, holoprotein (biliverdin-bound) (natural protein)
chain: STATNPLDLDVCAREPIHIPGLIQPYGVLLVIDPADGRIVQASTTAADLLGVPMAALLGMPYTQVLTLPEAQPFAVDDQPQHLMHAEVRFPQRATPPASAWVAAWHLYPQQWLVEMEPRDARLLDVTLREAMPLLRSVERDPGIAEAAVRVAKGLRSLIGFDRVMIYRFDEEWNGDIIAEARKPELEAYLGLHYPASDIPAQARALYLRNRVRQIADVGYQPSPIQPTVHPQLGTPVDLSDVSLRSVSPVHLEYLANMGVTATLVASIVVNDALWGLISCHHYSPHFTNHAMRDVTDAVARTLAGRIGALQAVARARLESVLLTVREKLITDFNDAEHMTVELLDDMAPDLMDVVDADGVAIFHGNDISRHGTTPDVAALRRIRDHIESEHHEALREDAVGALHVDAIGEVFPELADLAPLAAGFIFVPLMPQSRSALLWTRREQIQQIKWAENPQLAKLEDIPNSRLSPRKSFDLWQQTVRGRARRWSPLHLESARSLRVLIELMERKRFQQDFTLLEASLSRLRDGVAIIERGTANAAHRLLFVNTAFADVCGSDVAELIGRELQTLYASDAPRANVELLQDALRNGRAAYVTLPLQVSDGAPVYRQFHLEPLPSPSGVTAHWLLQLRDPE
modifications: biliverdin IXα (BV) covalently bound to Cys13 (thioether linkage)
With B1, in data set [1], the binding result is reported as “binds”.

B2: XccBphP G454A variant, holoprotein (biliverdin-bound) (natural protein)
chain: B1 chain with E453A
modifications: biliverdin IXα (BV) covalently bound to Cys13 (thioether linkage)
As to B2, the binding result in data set [2] was “binds”.
